Values of other authors in publication PMC3819593.

Experiments:
LLT1 (Homo sapiens) = LLT1 (Homo sapiens) (UniProt Q9UHP7)
AICL (Homo sapiens) = AICL (Homo sapiens) (UniProt Q92478)
Chain of UniProt Q92478 (Q92478 whole entry): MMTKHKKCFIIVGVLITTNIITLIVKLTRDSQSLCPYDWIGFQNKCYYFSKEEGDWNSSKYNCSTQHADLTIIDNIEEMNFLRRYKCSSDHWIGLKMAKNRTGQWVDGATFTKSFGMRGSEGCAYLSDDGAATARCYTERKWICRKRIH

Chain of UniProt Q9UHP7 (Q9UHP7 whole entry): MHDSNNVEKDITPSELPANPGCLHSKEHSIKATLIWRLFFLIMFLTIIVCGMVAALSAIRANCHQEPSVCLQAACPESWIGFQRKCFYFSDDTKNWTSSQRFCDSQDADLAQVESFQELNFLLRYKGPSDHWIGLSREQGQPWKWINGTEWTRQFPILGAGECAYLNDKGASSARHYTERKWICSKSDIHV

| Substance | Kd (LLT1 (Homo sapiens)) | Kd (AICL (Homo sapiens)) |
| --- | --- | --- |
| NKRP1A (from UniProt Q12918) | 48 µM | – |
| NKp80 (from UniProt Q9NZS2) | – | 4 µM |
